Results from paper PMC8138767, “Intrinsically disordered substrates dictate SPOP subnuclear localization and ubiquitination activity” (The Journal of Biological Chemistry, 2021).
“And” between values parts separate entries of the source, which are not always exact repeats. Equal entries are not always repeated. Where no end group is shown, it is not given here.

Key:
[1] = biological target: f-Puc, fluorescein-labeled peptide of the SPOP substrate Puc (residues 91-106); test: fluorescence polarisation; direct fluorescence anisotropy titration: SPOP construct (0.001-300 μM) added to 40 nM f-Puc; 50 mM sodium phosphate pH 6.5, 50 mM NaCl, 5 mM DTT, 1% BSA, 0.01% Triton X-100
[2] = biological target: f-Puc (fluorescein-labeled Puc peptide); test: fluorescence polarisation; direct fluorescence anisotropy: SPOP construct 0.001-300 μM added to 40 nM f-Puc; 50 mM sodium phosphate pH 6.5, 50 mM NaCl, 5 mM DTT, 1% BSA, 0.01% Triton X-100
[3] = biological target: T1, SPOP–MATH (residues 28–166) (Homo sapiens, UniProt O43791); test: Competition fluorescence anisotropy, displacement of f-Puc from SPOP–MATH; format: binding; conditions: competition FA
T1 construct: glutathione S-transferase (GST) (N, cleaved yes); 6X His (N, cleaved yes); made in house; host or cells: E. coli BL-21(DE3)
Description: An Escherichia coli codon-optimized DNA sequence encoding amino acids 205 to 283 of the human Pdx1 sequence (Pdx1-C) in the multiple cloning site of pET49b(+) was purchased from GeneArt (Thermo Fisher). The pET49b(+) backbone encodes for N-terminal glutathione S-transferase and 6X His tags, followed by a 3C protease recognition motif. In all experiments described herein, a mutant containing an exogenous tryptophan at the N terminus of the human Pdx1-C sequence was used for the purposes of quantitation. Mutations in Pdx1-C were generated by Q5 site-directed mutagenesis (New England Biolabs) with primers designed on NEBbasechanger.com according to the manufacturer protocol. Similarly, an E. coli–optimized DNA sequence encoding residues 28 to 166 of human SPOP (SPOP–MATH) was purchased in pET49b(+) from GeneArt. […] A plasmid encoding His–SUMO–SPOP human residues 28 to 359 harboring a tobacco etch virus protease recognition site directly N terminal to the beginning of the native SPOP protein sequence was generated previously ([21]).
All FA experiments were conducted in 50 mM sodium phosphate, pH 6.5, 50 mM sodium chloride, 5 mM DTT, 1% BSA, and 0.01% Triton X-100. In all experiments, the source of fluorescence signal was f-Puc purchased from GenScript, at a final concentration of 40 nM. For direct FA measurements, SPOP–MATH or SPOP28–359 of concentrations between 0.001 and 300 μM was added to wells of 96- or 384-well plates containing f-Puc and buffer. For competition-mode experiments, serial dilutions of each competitor (Pdx1 peptide or recombinant protein) were prepared ranging from ∼0.01 μM to ∼2 mM (concentration range varied based on peptide solubility) in wells of 96- or 384-well plates containing 40 nM f-Puc and 6 μM SPOP–MATH or SPOP28–359. The fluorescence polarization of each well was measured (from which FA was calculated) using either a TECAN Infinite M1000 Pro or BioTek Synergy 4 fluorometer. All experiments were performed with at least three technical replicates. FA data points were fit to a complete competitive binding model ([23]) to determine dissociation constants using in-house Python scripts (see Quantification and statistical analysis).
All titrations were performed in triplicate for rigor. Direct FA titrations were performed to determine the dissociation constants of the fluorescent probe toward SPOP constructs. Direct titration data were fit according to equation 6 in ([54]). Competition mode titration data were fit according to the fitting function in ([23]). Average dissociation constants and standard error from the mean for all constructs from competition experiments may be found in Table S4. The python scripts used in plotting and fitting may be found at https://github.com/idpemery/spop-pdx1.

SPOP28–359 = biological target: T2, SPOP28–359 (Homo sapiens, UniProt O43791); test: Competition fluorescence anisotropy, displacement of f-Puc from oligomeric SPOP28–359; format: binding; conditions: competition FA; 40 nM f-Puc, 6 μM SPOP28–359; 50 mM sodium phosphate pH 6.5, 50 mM NaCl, 5 mM DTT, 1% BSA, 0.01% Triton X-100; complete competitive binding model; ± standard deviation of three independent replicates (Table S4)
T2 construct: A plasmid encoding His–SUMO–SPOP human residues 28 to 359; His-SUMO (N, cleaved yes); made in house; host or cells: E. coli Rosetta BL-21(DE3)
Description: An Escherichia coli codon-optimized DNA sequence encoding amino acids 205 to 283 of the human Pdx1 sequence (Pdx1-C) in the multiple cloning site of pET49b(+) was purchased from GeneArt (Thermo Fisher). The pET49b(+) backbone encodes for N-terminal glutathione S-transferase and 6X His tags, followed by a 3C protease recognition motif. In all experiments described herein, a mutant containing an exogenous tryptophan at the N terminus of the human Pdx1-C sequence was used for the purposes of quantitation. Mutations in Pdx1-C were generated by Q5 site-directed mutagenesis (New England Biolabs) with primers designed on NEBbasechanger.com according to the manufacturer protocol. […]
All FA experiments were conducted in 50 mM sodium phosphate, pH 6.5, 50 mM sodium chloride, 5 mM DTT, 1% BSA, and 0.01% Triton X-100. In all experiments, the source of fluorescence signal was f-Puc purchased from GenScript, at a final concentration of 40 nM. […] The fluorescence polarization of each well was measured (from which FA was calculated) using either a TECAN Infinite M1000 Pro or BioTek Synergy 4 fluorometer. […] FA data points were fit to a complete competitive binding model ([23]) to determine dissociation constants using in-house Python scripts (see Quantification and statistical analysis). […]

[4] = test system: SPOP–MATH substrate-binding groove; test: 1H,15N HSQC NMR titration of 15N–SPOP–MATH with Pdx1 peptides; set-up: species or system human
Description: (§1) NMR data collection and analysis
(§2) NMR data were collected on Bruker Avance III 500, 600, or 850 MHz spectrometers equipped with TCI triple-resonance cryoprobes. All data collection and initial processing were carried out in TopSpin (Bruker). NMR experiments on all proteins were collected in 50 mM sodium phosphate, pH 6.5, 50 mM sodium chloride, 5 mM DTT, 0.01% sodium azide, and 5% D2O unless otherwise noted.
Addition of Pdx1 peptides into ^15N–SPOP–MATH was monitored by sensitivity-enhanced ^1H, ^15N HSQC. The peptides were mixed in a 4:1 peptide:SPOP mole ratio with between 0.1 and 0.2 mM ^15N–SPOP–MATH. Each experiment consisted of 16 scans and 2048 × 256 complex data points. Spectral comparison was carried out in NMRFAM-Sparky using the assigned ^15N-SPOP-MATH spectrum as a reference. Integrated peak intensities before and after the addition of peptide were compared and normalized within each dataset, and the percent change (1 − Ibound/Iunbound) was plotted on the surface of published SPOP–MATH cocrystal structures (PDB IDs: 3IVV or 6F8F) ([25], [33]) using PyMol (PyMOL Molecular Graphics System, Version 2.1.1, Schrödinger, LLC). In each case, surface coloring corresponds to thresholds of intensity change, where the greatest resonance intensity changes are reflected by the lightest color. […]

[5] = biological target: T3, SPOP28-359 (human SPOP residues 28-359) (human, UniProt O43791 28-359); test: fluorescence polarisation; competition fluorescence anisotropy: competitor (~0.01 μM to ~2 mM) displaces 40 nM f-Puc from 6 μM SPOP-MATH or SPOP28-359; complete competitive binding fit; 50 mM sodium phosphate pH 6.5, 50 mM NaCl, 5 mM DTT, 1% BSA, 0.01% Triton X-100; conditions: both partners purified
T3 construct: also called oligomeric SPOP; source: E. coli Rosetta BL-21(DE3), purified (Ni-NTA, TEV protease, second Ni-NTA, Superdex 200); not shown: His, N-terminal, cleaved; SUMO, N-terminal, cleaved

[6] = biological target: T4, SPOP-MATH (human SPOP residues 28-166) (human, UniProt O43791 28-166); test: as above; conditions: both partners purified
T4 construct: N-terminal Gly-Pro-Gly cloning artefact left after 3C protease; speckle-type POZ protein (SPOP), human, MATH domain, residues 28-166; uniformly 15N-labelled for the NMR experiments; also called 15N-SPOP-MATH; source: E. coli BL-21(DE3), purified (Ni-NTA, 3C protease, second Ni-NTA, Sephacryl S100); not shown: GST, N-terminal, cleaved; His6, N-terminal, cleaved

[7] = biological target: T1, SPOP–MATH (residues 28–166); test: (HACA)CON NMR of 13C,15N–Pdx1-C with SPOP–MATH; format: binding; conditions: 13C direct-detect (HACA)CON, 500 MHz, 25 °C, pH 6.5
Description: as §1, §2
Addition of SPOP–MATH into ^13C, ^15N–Pdx1-C was monitored by ^13C direct-detect (HACA)CON experiments ([44]) consisting of 16 scans and 1024 × 128 complex data points. SPOP–MATH was added to ^13C, ^15N–Pdx1-C such that the final concentrations were 0.35 mM and 0.37 mM, respectively. Peaks from each spectrum were integrated and used to calculate a percent intensity change in Pdx1-C resonances after binding of SPOP–MATH. SPOP28–359 was added to ^13C, ^15N–Pdx1-C at a 4-fold molar excess and detected by HSQC or (HACA)CON. Line broadening precluded residue-specific analysis of SPOP28–359 and Pdx1-C.

[8] = biological target: T5, SPOP_(28–359) (human SPOP residues 28–359) (human, UniProt O43791 28-359); test: fluorescence polarisation; competition fluorescence anisotropy: competitor against 40 nM f-Puc and 6 μM SPOP_(28–359); 50 mM sodium phosphate pH 6.5, 50 mM NaCl, 5 mM DTT, 1% BSA, 0.01% Triton X-100; complete competitive binding fit; conditions: both partners purified
T5 construct: also called His–SUMO–SPOP (before cleavage); source: E. coli Rosetta BL-21(DE3), purified (Ni-NTA, TEV protease, second Ni-NTA, Superdex 200); not shown: His, N-terminal, cleaved; SUMO, N-terminal, cleaved

[9] = biological target: T6, SPOP–MATH (human SPOP residues 28–166) (human, UniProt O43791 28-166); test: fluorescence polarisation; competition fluorescence anisotropy: competitor ~0.01 μM to ~2 mM against 40 nM f-Puc and 6 μM SPOP–MATH; 50 mM sodium phosphate pH 6.5, 50 mM NaCl, 5 mM DTT, 1% BSA, 0.01% Triton X-100; complete competitive binding fit; conditions: both partners purified
T6 construct: N-terminal Gly–Pro–Gly cloning artifact left after 3C protease; speckle-type POZ protein (SPOP), human, MATH domain, residues 28-166; Uniformly 15N (or 13C,15N) enriched for the NMR experiments in which it is the observed protein; also called monomeric SPOP–MATH; ^15N–SPOP–MATH; source: E. coli BL-21(DE3), purified (Ni-NTA, 3C protease, second Ni-NTA, Sephacryl S100 gel filtration); not shown: …
T6 sequence (O43791 other isoform, or with tags, fused parts or gaps): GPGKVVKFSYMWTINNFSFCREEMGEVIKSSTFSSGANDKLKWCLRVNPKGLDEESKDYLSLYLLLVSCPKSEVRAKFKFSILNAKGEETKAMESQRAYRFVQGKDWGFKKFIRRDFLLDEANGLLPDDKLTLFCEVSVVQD

T1 sequence (O43791 28-166): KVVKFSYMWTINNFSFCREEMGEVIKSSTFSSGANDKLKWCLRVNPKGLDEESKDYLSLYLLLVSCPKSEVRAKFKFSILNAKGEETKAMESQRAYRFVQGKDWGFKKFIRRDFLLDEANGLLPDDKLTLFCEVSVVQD
T3 sequence (O43791 28-359): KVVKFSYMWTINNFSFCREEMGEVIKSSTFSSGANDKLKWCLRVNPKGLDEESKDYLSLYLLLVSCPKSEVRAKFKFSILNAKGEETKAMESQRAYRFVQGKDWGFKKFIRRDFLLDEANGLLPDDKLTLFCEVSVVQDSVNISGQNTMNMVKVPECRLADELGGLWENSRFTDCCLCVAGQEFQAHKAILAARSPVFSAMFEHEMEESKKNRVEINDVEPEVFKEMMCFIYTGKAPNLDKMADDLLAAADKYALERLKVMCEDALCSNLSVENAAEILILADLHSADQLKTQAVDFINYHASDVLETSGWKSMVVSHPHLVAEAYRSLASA
T4 sequence (O43791 other isoform, or with tags, fused parts or gaps): as the sequence (O43791 other isoform, or with tags, fused parts or gaps) above
T2 sequence (O43791 28-359): as the sequence (O43791 28-359) above
T5 sequence (O43791 28-359): as above

## SPOP-MATH (human SPOP residues 28-166) (from UniProt O43791 28-166) (domain or fragment)
[1]
  Kd: 2.62 µM and 2.55 µM

## SPOP–MATH (human SPOP residues 28–166) (from UniProt O43791 28-166) (domain or fragment)
[2]
  Kd: 2.6 µM

## SPOP28-359 (human SPOP residues 28-359) (from UniProt O43791 28-359) (domain or fragment)
[1]
  Kd: 2.55 µM and 2.62 µM

## ENLACDEVTSTTSSST [Puc, reference compound]
[3]; 40 nM f-Puc, 6 μM SPOP–MATH, 50 mM sodium phosphate pH 6.5, 50 mM NaCl, 5 mM DTT, 1% BSA, 0.01% Triton X-100, complete competitive binding model, ± standard deviation of three independent replicates (Table S4)
  Kd: 2.6 ± 0.4 µM
SPOP28–359
  Kd: 2.6 ± 1 µM

## Ac-GVAEPEQDCAVTSGEELLALPP [Pdx1–SBM1, SB motif 1 peptide of Pdx1 (residues 224–236)]
[4]; SBM1 and SBM2 peptides added to 15N-SPOP-MATH in equimolar ratios
  relative SB affinity from mixed-peptide NMR: higher SB affinity of Pdx1–SBM1 than Pdx1–SBM2
[4]; peptide:15N-SPOP–MATH 4:1, 0.1–0.2 mM 15N–SPOP–MATH, 50 mM sodium phosphate pH 6.5, 50 mM NaCl, 5 mM DTT
  HSQC spectral changes in SPOP–MATH: spectral changes are primarily localized to the substrate-binding groove

B1: Puc peptide (residues 91-106), unlabeled (peptide)
peptide: ENLACDEVTSTTSSST
notes: puckered protein (Puc), residues 91-106; also called dark Puc peptide; unlabeled Puc peptide; source: synthetic peptide (Tufts University Core Facility, HPLC purified)
[5]
  Kd: 2.6 µM
[6]
  Kd: 2.6 µM

B2: Pdx1-C (C-terminal intrinsically disordered region of human Pdx1) (domain or fragment)
chain: GPGWEDKKRGGGTAVGGGGVAEPEQDCAVTSGEELLALPPPPPPGGAVPPAAPVAAREGRLPPGLSASPQPSSVAPRRPQEPR
notes: N-terminal Gly-Pro-Gly cloning artefact left after 3C protease; pancreatic and duodenal homeobox 1 (Pdx1), human, amino acids 205-283 by the methods; the exogenous tryptophan may be what is counted as residue 204 (surmise); also called 13C,15N-Pdx1-C; source: E. coli BL-21(DE3), purified (Ni-NTA, 3C protease, second Ni-NTA, heat, anion exchange flow-through); not shown: GST, N-terminal, cleaved; …
[5]
  Kd: 3.5 µM
[6]
  Kd: 32 µM

B3: Pdx1-C: recombinant human Pdx1 C-terminal intrinsically disordered region (residues 204–283) (protein)
chain: B2 chain
modifications: left off: GST, N-terminal, cleaved | His6, N-terminal, cleaved
[3]; Fig. 5 and Table S4
  apparent affinity for SPOP–MATH, in words: higher apparent affinity for SPOP–MATH than the strongest individual SB motif alone
[7]
  resonance intensity loss in Pdx1-C on addition of SPOP-MATH: marked resonance intensity loss in two specific locations: amino acids 220 to 235 (highlighted in teal) and amino acids 265 to 275

B4: Pdx1-C (C-terminal intrinsically disordered region of human Pdx1) (domain or fragment)
chain: B2 chain
notes: N-terminal Gly–Pro–Gly cloning artifact left after 3C protease; pancreatic and duodenal homeobox 1 (Pdx1), human, amino acids 205-283 (methods); The results' 204–283 may count the added tryptophan as position 204; 13C,15N enriched for NMR; also called ^13C, ^15N-Pdx1-C; Pdx1 C terminus; source: E. coli BL-21(DE3), purified (Ni-NTA, 3C protease, second Ni-NTA, heat, anion exchange flow-through); …
[8]
  fold enhancement in binding affinity compared with SPOP–MATH: ~10 fold

B5: Pdx1–SBM1f peptide (Pdx1 residues 224–234) (peptide)
peptide: EQDCAVTSGEE
notes: human Pdx1 residues 224-234, shorter SBM1 peptide used for fluorescence anisotropy; source: synthetic peptide (Tufts University Core Facility, HPLC purified)
[9]
  Kd: 140 µM
